According to doi:10.1101/2023.05.02.539095 (bioRxiv, 2023):

How the values were obtained:
[1] = target: 0317ΔCD (MSMEG_0317 lacking the C-terminal cytoplasmic domain) (M. smegmatis); test: SEC-MALS
[2] = target: 0317ΔNH (MSMEG_0317 lacking the N-terminal TM helix) (M. smegmatis); test: SEC-MALS

| Substance | stoichiometry N [1] | stoichiometry N [2] |
| --- | --- | --- |
| 0317ΔCD (MSMEG_0317 lacking the C-terminal cytoplasmic domain) (domain or fragment) | 2 | – |
| 0317ΔNH (MSMEG_0317 lacking the N-terminal TM helix) (domain or fragment) | – | 2 |
